Test results taken from paper PMC5303546 (Biochemical Pharmacology, 2017).

Experiments:
PTH2R (L382T) = test: LANCE cAMP screen, mutant PTH2; settings: 1 μM PTH(1–34), 10,000 cells/well, 30 min
Description: (§1) These various pcDNA3 constructs were used to express the wild type human PTH1 and PTH2 receptors, and mutant PTH2 receptors, in Human Embryonic Kidney (HEK)-293 cells.
(§2) The HEK-293 cells were cultured in Dulbecco’s Modified Eagle’s Medium (DMEM, from Sigma, Poole, UK) supplemented with 10% foetal calf serum (Lonza Wokinham Ltd., Wokingham, UK) and containing 2 mM L-glutamine, 100 U/ml penicillin and 100 μg/ml streptomycin (Invitrogen, Paisley, UK). Cells were transfected with pcDNA3 containing the cDNA encoding the receptors, using the SuperFect® Transfection Reagent (Qiagen Ltd., Crawley, UK.) and stable clones were selected with G418 antibiotic (Invitrogen, Paisley, UK) as follows. Cells were seeded into a 25 cm^2 flask containing 10 ml of media and transfected when they reached 50–80% confluence. To do this, 20 μl of SuperFect® was mixed with a DNA solution consisting of 5 μg plasmid DNA in 150 μl DMEM. The DNA was incubated with the reagent for 10 min at room temperature after which 1 ml of media was then added and mixed gently. […]
(§3) The LANCE cAMP kit (PerkinElmer Life and Analytical Sciences) was used alongside the manufacturer’s instructions with some minor adaptations as described. […] The acceptor fluorescence signal was read at 665 nm on a ViewLux instrument (Perkin Elmer).

PTH2R (M242F) = test: LANCE cAMP screen, mutant PTH2; settings: 1 μM PTH(1–34), 10,000 cells/well, 30 min
Description: (§4) The full-length cDNA of human PTH1 and PTH2 (gift from GlaxoSmithKline) in pcDNA3 (Invitrogen, Paisley, UK) were used to express wild type receptors as described previously [14]. […] These various pcDNA3 constructs were used to express the wild type human PTH1 and PTH2 receptors, and mutant PTH2 receptors, in Human Embryonic Kidney (HEK)-293 cells.
(§5) The HEK-293 cells were cultured in Dulbecco’s Modified Eagle’s Medium (DMEM, from Sigma, Poole, UK) supplemented with 10% foetal calf serum (Lonza Wokinham Ltd., Wokingham, UK) and containing 2 mM L-glutamine, 100 U/ml penicillin and 100 μg/ml streptomycin (Invitrogen, Paisley, UK). Cells were transfected with pcDNA3 containing the cDNA encoding the receptors, using the SuperFect® Transfection Reagent (Qiagen Ltd., Crawley, UK.) and stable clones were selected with G418 antibiotic (Invitrogen, Paisley, UK) as follows. Cells were seeded into a 25 cm^2 flask containing 10 ml of media and transfected when they reached 50–80% confluence. To do this, 20 μl of SuperFect® was mixed with a DNA solution consisting of 5 μg plasmid DNA in 150 μl DMEM. […]
as §3

PTH2R (V380 M) = test: LANCE cAMP screen, mutant PTH2; type: cell-based, human; settings: 1 μM PTH(1–34), 10,000 cells/well, 30 min
Description: as §1, §2, §3

PTH2R (I244L) = test: LANCE cAMP screen, mutant PTH2; settings: 1 μM PTH(1–34), 10,000 cells/well, 30 min
Description: as §4, §5, §3

PTH2R (C381A) = test: LANCE cAMP screen, mutant PTH2; settings: 1 μM PTH(1–34), 10,000 cells/well, 30 min
Description: as §1, §2, §3

PTH2R (V146 M) = test: LANCE cAMP screen, mutant PTH2; type: cell-based, human; settings: 1 μM PTH(1–34), 10,000 cells/well, 30 min
Description: as §4, §5, §3

PTH1 = test: LANCE cAMP screen, wild type PTH1; type: cell-based, human; settings: 1 μM PTH(1–34); HEK-293 stable cells, 10,000 cells/well, 30 min stimulation
Description: as §4, §5, §3

PTH2R (L399M) = test: LANCE cAMP screen, mutant PTH2; settings: 1 μM PTH(1–34), 10,000 cells/well, 30 min
Description: as §1, §2, §3

PTH2R (A320V) = test: LANCE cAMP screen, mutant PTH2; settings: 1 μM PTH(1–34), 10,000 cells/well, 30 min
Description: as §1, §2, §3

PTH2R (A295V) = test: LANCE cAMP screen, mutant PTH2; settings: 1 μM PTH(1–34), 10,000 cells/well, 30 min
Description: as §4, §5, §3

PTH2R (Y318I) = test: LANCE cAMP screen, mutant PTH2; settings: 1 μM PTH(1–34), 10,000 cells/well, 30 min
Description: as §1, §2, §3

PTH2R (A293V) = test: LANCE cAMP screen, mutant PTH2; settings: 1 μM PTH(1–34), 10,000 cells/well, 30 min
Description: as §4, §5, §3

PTH2R (A297V) = test: LANCE cAMP screen, mutant PTH2; settings: 1 μM PTH(1–34), 10,000 cells/well, 30 min
Description: as §1, §2, §3

PTH2R (V296S) = test: LANCE cAMP screen, mutant PTH2; settings: 1 μM PTH(1–34), 10,000 cells/well, 30 min
Description: as §1, §2, §3

PTH2R (V241T) = test: LANCE cAMP screen, mutant PTH2; settings: 1 μM PTH(1–34), 10,000 cells/well, 30 min
Description: as §4, §5, §3

PTH2R (G327V) = test: LANCE cAMP screen, mutant PTH2; settings: 1 μM PTH(1–34), 10,000 cells/well, 30 min
Description: as §1, §2, §3

PTH2R (T192V) = test: LANCE cAMP screen, mutant PTH2; settings: 1 μM PTH(1–34), 10,000 cells/well, 30 min
Description: as §4, §5, §3

PTH2R (C397Y) = test: LANCE cAMP screen, mutant PTH2; settings: 1 μM PTH(1–34), 10,000 cells/well, 30 min
Description: as §1, §2, §3

[1] = molecular target: PTH2 receptor mutant Tyr-318-Phe (human) (UniProt P49190)
PTH2 receptor mutant Tyr-318-Phe (human), sequence (P49190 25-550 Y318F): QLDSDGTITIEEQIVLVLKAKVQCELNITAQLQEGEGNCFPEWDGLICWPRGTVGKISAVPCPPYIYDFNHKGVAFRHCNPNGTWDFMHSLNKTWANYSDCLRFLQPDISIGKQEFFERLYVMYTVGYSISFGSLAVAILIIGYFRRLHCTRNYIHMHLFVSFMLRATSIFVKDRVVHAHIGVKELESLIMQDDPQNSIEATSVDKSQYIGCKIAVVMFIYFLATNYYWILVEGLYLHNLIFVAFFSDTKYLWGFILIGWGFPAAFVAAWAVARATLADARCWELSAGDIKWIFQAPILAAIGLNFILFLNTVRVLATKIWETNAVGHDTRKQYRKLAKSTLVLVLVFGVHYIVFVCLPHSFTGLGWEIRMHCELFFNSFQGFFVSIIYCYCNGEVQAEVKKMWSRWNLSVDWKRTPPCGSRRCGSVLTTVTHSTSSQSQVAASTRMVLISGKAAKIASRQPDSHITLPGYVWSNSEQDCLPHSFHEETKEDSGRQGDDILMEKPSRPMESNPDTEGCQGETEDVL

[2] = molecular target: parathyroid hormone 2 receptor (PTH2), wild type, human (human) (UniProt P49190)
parathyroid hormone 2 receptor (PTH2), wild type, human (human), sequence (P49190 25-550): as the sequence (P49190 25-550 Y318F) above, with F294Y counted along it

[3] = molecular target: PTH2 receptor mutant Tyr-318-Ile (human) (UniProt P49190)
PTH2 receptor mutant Tyr-318-Ile (human), sequence (P49190 25-550 Y318I): as the sequence (P49190 25-550 Y318F) above, with F294I counted along it

[4] = molecular target: PTH2 receptor mutant Tyr-318-Phe (human) (UniProt P49190); test: radioligand binding; whole-cell competition: HEK-293 cells expressing the receptor in poly-D-lysine coated 24-well plates; 50 pM ^125I-rPTH(1–34); unlabelled ligand 10 μM–10 pM; room temperature, 2 h; Whole Cell Binding Buffer pH 7.7 with 5% horse serum and 0.5% foetal calf serum; IC50 from a single site model with the Hill co-efficient constrained to 1
[5] = molecular target: parathyroid hormone 2 receptor (PTH2), wild type, human (human) (UniProt P49190); test: as above
[6] = molecular target: PTH2 receptor mutant Tyr-318-Ile (human) (UniProt P49190); test: as above
PTH2 = settings: cited from earlier work
Text: Despite the success of the chimeric and single residue-swap studies of PTH1 and PTH2 described above, [14], [15], [20], which identified PTH/PTHrP binding and selectivity determinants at PTH1 and PTH2, the nature of the TIP39 selection has not been explored to the same degree.

| Molecule | cAMP accumulation (LANCE), EC50; 2500 cells/well, 10 min [1] | cAMP accumulation (LANCE), pEC50; 2500 cells/well, 10 min [1] | cAMP accumulation (LANCE), EC50; 2500 cells/well, 10 min [2] | cAMP accumulation (LANCE), pEC50; 2500 cells/well, 10 min [2] | cAMP accumulation (LANCE), EC50; 2500 cells/well, 10 min [3] | cAMP accumulation (LANCE), pEC50; 2500 cells/well, 10 min [3] | IC50 [4] | pIC50 [4] | IC50 [5] | pIC50 [5] | IC50 [6] | pIC50 [6] | also measured |
| --- | --- | --- | --- | --- | --- | --- | --- | --- | --- | --- | --- | --- | --- |
| CC[C@H](C)[C@H](NC(=O)[C@H](CCC(=O)O)NC(=O)[C@H](CO)NC(=O)[C@@H](NC(=O)[C@@H](N)CO)C(C)C)C(=O)N[C@@H](CCC(N)=O)C(=O)N[C@@H](CC(C)C)C(=O)N[C@@H](CCSC)C(=O)N[C@@H](Cc1c[nH]cn1)C(=O)N[C@@H](CC(N)=O)C(=O)N[C@@H](CC(C)C)C(=O)NCC(=O)N[C@@H](CCCCN)C(=O)N[C@@H](Cc1c[nH]cn1)C(=O)N[C@@H](CC(C)C)C(=O)N[C@@H](CC(N)=O)C(=O)N[C@@H](CO)C(=O)N[C@@H](CCSC)C(=O)N[C@@H](CCC(=O)O)C(=O)N[C@@H](CCCNC(=N)N)C(=O)N[C@H](C(=O)N[C@@H](CCC(=O)O)C(=O)N[C@@H](Cc1c[nH]c2ccccc12)C(=O)N[C@@H](CC(C)C)C(=O)N[C@@H](CCCNC(=N)N)C(=O)N[C@@H](CCCCN)C(=O)N[C@@H](CCCCN)C(=O)N[C@@H](CC(C)C)C(=O)N[C@@H](CCC(N)=O)C(=O)N[C@@H](CC(=O)O)C(=O)N[C@H](C(=O)N[C@@H](Cc1c[nH]cn1)C(=O)N[C@@H](CC(N)=O)C(=O)N[C@@H](Cc1ccccc1)C(=O)O)C(C)C)C(C)C [PTH(1–34)] | – | – | – | – | – | – | – | – | – | – | – | – | % maximum PTH(1–34) response (PTH2R (L382T)): 102 ± 2%; % maximum PTH(1–34) response (PTH2R (M242F)): 98 ± 2%; % maximum PTH(1–34) response (PTH2R (V380 M)): 102 ± 1%; % maximum PTH(1–34) response (PTH2R (I244L)): 100 ± 3%; % maximum PTH(1–34) response (PTH2R (C381A)): 100 ± 2%; % maximum PTH(1–34) response (PTH2R (V146 M)): 102 ± 1%; % maximum PTH(1–34) response (PTH1): 99 ± 2%; % maximum PTH(1–34) response (PTH2R (L399M)): 101 ± 1%; % maximum PTH(1–34) response (PTH2R (A320V)): 100 ± 1%; % maximum PTH(1–34) response (PTH2R (A295V)): 99 ± 2%; % maximum PTH(1–34) response (PTH2R (Y318I)): 99 ± 1%; % maximum PTH(1–34) response (PTH2R (A293V)): 99 ± 2%; % maximum PTH(1–34) response (PTH2R (A297V)): 100 ± 2%; % maximum PTH(1–34) response (PTH2R (V296S)): 101 ± 2%; % maximum PTH(1–34) response (PTH2R (V241T)): 100 ± 1%; % maximum PTH(1–34) response (PTH2R (G327V)): 100 ± 2%; % maximum PTH(1–34) response (PTH2R (T192V)): 102 ± 2%; % maximum PTH(1–34) response (PTH2R (C397Y)): 100 ± 2% |
| TIP (2–39) (peptide) | 0.00479 µM | 8.32 | 0.00012 µM | 9.92 | 0.0417 µM | 7.38 | 0.417 µM | 6.38 | 0.0589 µM | 7.23 | 1.48 µM | 5.83 | – |
| TIP (3–39) (peptide) | 0.00955 µM | 8.02 | 0.00022 µM | 9.66 | 0.0501 µM | 7.3 | 0.479 µM | 6.32 | 0.105 µM | 6.98 | 1.26 µM | 5.9 | – |
| TIP (4–39) (peptide) | 0.0132 µM | 7.88 | 0.00029 µM | 9.54 | 0.0891 µM | 7.05 | 0.603 µM | 6.22 | 0.158 µM | 6.8 | 1.48 µM | 5.83 | – |
| TIP (5–39) (peptide) | 0.912 µM | 6.04 | 0.017 µM | 7.77 | > 1 µM | < 6 | 3.24 µM | 5.49 | 0.871 µM | 6.06 | 7.24 µM | 5.14 | – |
| TIP (6–39) (peptide) | > 1 µM | < 6 | 0.123 µM | 6.91 | – | – | 4.27 µM | 5.37 | 1.05 µM | 5.98 | 8.71 µM | 5.06 | – |
| TIP (7–39): TIP39 truncated by the first 6 residues, literature peptide (ref 21) (DAAFRERARLLAALERRHWLNSYMHKLLVLDAP; Tuberoinfundibular peptide of 39 residues; UniProt Q96A98 68-100, looked up, fragment) | – | – | – | – | – | – | – | – | – | – | – | – | efficacy at PTH2 (PTH2): no efficacy |
